Patent US20240082414A1, “HUMAN TUMOR NECROSIS FACTOR ALPHA ANTIBODY GLUCOCORTICOID CONJUGATES” (Eli Lilly and Company, priority 2022, published 2024)

Columns and labels:
[1] = biological target: human FcγRI (CD64) extracellular domain (human) (UniProt P12314); experiment: SPR (Biacore), antibody captured on Protein A, FcγR ECD as analyte, 25° C.
[2] = biological target: human FcγRIIIA_158F (CD16a) extracellular domain (human) (UniProt P08637); experiment: SPR (Biacore), antibody captured on Protein A, FcγR ECD as analyte, steady state, 25° C.
Chain of human FcγRIIIA_158F (CD16a) extracellular domain (human) (P08637 17-208): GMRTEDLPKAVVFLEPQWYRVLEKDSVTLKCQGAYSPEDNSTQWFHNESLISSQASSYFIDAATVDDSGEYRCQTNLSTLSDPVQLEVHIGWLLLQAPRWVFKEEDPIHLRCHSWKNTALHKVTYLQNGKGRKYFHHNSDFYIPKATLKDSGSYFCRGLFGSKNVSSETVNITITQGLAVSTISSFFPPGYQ

[3] = biological target: human FcγRIIA_131R (CD32a) extracellular domain (human) (UniProt P12318); experiment: as above
Chain of human FcγRIIA_131R (CD32a) extracellular domain (human) (P12318 34-217 H167R limits assumed): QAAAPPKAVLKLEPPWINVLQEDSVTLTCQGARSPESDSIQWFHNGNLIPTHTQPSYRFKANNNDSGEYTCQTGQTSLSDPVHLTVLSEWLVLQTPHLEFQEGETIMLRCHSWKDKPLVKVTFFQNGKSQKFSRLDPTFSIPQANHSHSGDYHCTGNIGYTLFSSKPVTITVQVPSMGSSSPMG

[4] = biological target: human FcγRIIA_131H (CD32a) extracellular domain (human) (UniProt P12318); experiment: as above
Chain of human FcγRIIA_131H (CD32a) extracellular domain (human) (P12318 34-217): as the sequence (P12318 34-217 H167R limits assumed) above, with R134H counted along it

[5] = biological target: human FcγRIIb (CD32b) extracellular domain (human) (UniProt P31994); experiment: as above
Chain of human FcγRIIb (CD32b) extracellular domain (human) (P31994 43-217): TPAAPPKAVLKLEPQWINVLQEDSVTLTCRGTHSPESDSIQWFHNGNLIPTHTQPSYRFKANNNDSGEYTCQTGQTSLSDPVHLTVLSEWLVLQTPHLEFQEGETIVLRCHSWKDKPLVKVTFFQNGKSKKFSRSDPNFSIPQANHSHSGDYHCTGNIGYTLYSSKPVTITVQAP

Chain of human FcγRI (CD64) extracellular domain (human) (P12314 16-292): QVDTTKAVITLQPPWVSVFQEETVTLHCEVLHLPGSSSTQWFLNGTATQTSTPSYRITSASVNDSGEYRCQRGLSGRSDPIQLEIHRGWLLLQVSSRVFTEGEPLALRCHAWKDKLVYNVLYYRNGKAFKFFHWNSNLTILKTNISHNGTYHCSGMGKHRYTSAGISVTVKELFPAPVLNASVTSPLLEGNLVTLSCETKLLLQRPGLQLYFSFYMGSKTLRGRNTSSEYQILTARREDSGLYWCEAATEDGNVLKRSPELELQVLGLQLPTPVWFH

Kd [1]: 0.0479 nM
Kd [2]: 820 nM
Kd [3]: 570 nM
Kd [4]: 570 nM
Kd [5]: 2810 nM
Substance: human IgG1 isotype control antibody
